According to US7657385B2:

Target: CD81-LEL (large extracellular loop of human CD81, amino acids 113-201) (human)
Experiment: X-ray crystal structure; dimer in the asymmetric unit

- subunit interface: 986 Å^2
Substance: CD81-LEL (large extracellular loop of human CD81, amino acids 113-201) (receptor)
